Reference: publication doi:10.1101/773283 (bioRxiv, 2020)
“And” between values parts separate entries of the source, which are not always exact repeats. Identical values can stand only once.

B1: human vinculin HV 1-834 containing the D1-D4 domains (domain or fragment, UniProt P18206-2 1-834, looked up)
chain: MPVFHTRTIESILEPVAQQISHLVIMHEEGEVDGKAIPDLTAPVAAVQAAVSNLVRVGKETVQTTEDQILKRDMPPAFIKVENACTKLVQAAQMLQSDPYSVPARDYLIDGSRGILSGTSDLLLTFDEAEVRKIIRVCKGILEYLTVAEVVETMEDLVTYTKNLGPGMTKMAKMIDERQQELTHQEHRVMLVNSMNTVKELLPVLISAMKIFVTTKNSKNQGIEEALKNRNFTVEKMSAEINEIIRVLQLTSWDEDAWASKDTEAMKRALASIDSKLNQAKGWLRDPSASPGDAGEQAIRQILDEAGKVGELCAGKERREILGTCKMLGQMTDQVADLRARGQGSSPVAMQKAQQVSQGLDVLTAKVENAARKLEAMTNSKQSIAKKIDAAQNWLADPNGGPEGEEQIRGALAEARKIAELCDDPKERDDILRSLGEISALTSKLADLRRQGKGDSPEARALAKQVATALQNLQTKTNRAVANSRPAKAAVHLEGKIEQAQRWIDNPTVDDRGVGQAAIRGLVAEGHRLANVMMGPYRQDLLAKCDRVDQLTAQLADLAARGEGESPQARALASQLQDSLKDLKARMQEAMTQEVSDVFSDTTTPIKLLAVAATAPPDAPNREEVFDERAANFENHSGKLGATAEKAAAVGTANKSTVEGIQASVKTARELTPQVVSAARILLRNPGNQAAYEHFETMKNQWIDNVEKMTGLVDEAIDTKSLLDASEEAIKKDLDKCKVAMANIQPQMLVAGATSIARRANRILLVAKREVENSEDPKFREAVKAASDELSKTISPMVMDAKAVAGNISDPGLQKSFLDSGYRILGAVAKVREA

How the values were obtained:
[1] = target: human vinculin D1 and D2 domains (D1D2) (human) (UniProt P18206); test: native gel or EMSA
[2] = target: human vinculin D1 subdomain (HV 1-258) (human) (UniProt P18206); test: native gel or EMSA
[3] = target: cysteine-clamped vinculin D1D2 Q68C A396C (human) (UniProt P18206); test: native gel or EMSA
[4] = target: human vinculin D1 and D2 domains (D1D2) (human) (UniProt P18206); test: SEC-MALS
[5] = target: full-length human vinculin (HV) (human) (UniProt P18206); test: ELISA
[6] = target: human vinculin D1 subdomain (HV 1-258) (human) (UniProt P18206); test: SEC-MALS
[7] = target: human vinculin HV 1-834 containing the D1-D4 domains (human) (UniProt P18206); test: SEC-MALS
SEC-MALS = target: the molecule itself; test: SEC-MALS

Row | Molecule | stoichiometry N [1] | stoichiometry N [2] | stoichiometry N [3] | EC50 [5] [nM] | other results
1 | IpaA derivative containing VBS1-2 (A524) (from UniProt P18010 524-633) (domain or fragment) | 1 | 1 | 1 | 3.7 | stoichiometry N (D1D2 per A524) [4]: 1 and 2
2 | IpaA derivative containing VBS1-3 (A483) (from UniProt P18010 483-633) (domain or fragment) | 1 | 1 | 1 | 6.1 | stoichiometry N (A483 per D1D2) [1]: 1 and 2; stoichiometry N (D1D2 per A483) [4]: 2; stoichiometry N [6]: 3 D1 per A483; stoichiometry N (D1D4 per A483) [7]: 1 and 2
3 | human vinculin D1 and D2 domains (D1D2) (from UniProt P18206-2 1-492) (domain or fragment) |  |  |  |  | stoichiometry N [4]: 3
4 | B1 |  |  |  |  | stoichiometry N (SEC-MALS): 3
